Target: the molecule itself
Test: cryo-EM structure

B1: Full-length GSDMD(D275A), C-terminal Flag, palmitoylated (natural protein, human, UniProt P57764 1-484, looked up)
chain: MGSAFERVVRRVVQELDHGGEFIPVTSLQSSTGFQPYCLVVRKPSSSWFWKPRYKCVNLSIKDILEPDAAEPDVQRGRSFHFYDAMDGQIQGSVELAAPGQAKIAGGAAVSDSSSTSMNVYSLSVDPNTWQTLLHERHLRQPEHKVLQQLRSRGDNVYVVTEVLQTQKEVEVTRTHKREGSGRFSLPGATCLQGEGQGHLSQKKTVTIPSGSTLAFRVAQLVIDSDLDVLLFPDKKQRTFQPPATGHKRSTSEGAWPQLPSGLSMMRCLHNFLTAGVPAEGAFTEDFQGLRAEVETISKELELLDRELCQLLLEGLEGVLRDQLALRALEEALEQGQSLGPVEPLDGPAGAVLECLVLSSGMLVPELAIPVVYLLGALTMLSETQHKLLAEALESQTLLGPLELVGSLLEQSAPWQERSTMSLPPGLLGNSWGEGAPAWVLLDECGLELGEDTPHVCWEPQAQGRMCALYASLALLSGLSQEPH
modifications: S-palmitoylation at Cys191
For B1, the “stoichiometry N” value was 33.
